This note sets out measurements from PMC7343536 (Cell, 2017).

Where two headings read alike, the source gives them in different places. No end group written: not given here.

The target in experiment [1] is T1, Ssb2 (purified recombinant) (S. cerevisiae, UniProt P40150 1-613). In words: stopped-flow fluorescence, peptide release.
The target of experiment [2] is T1, Ssb2 (purified recombinant). The experiment can be described thus: stopped-flow fluorescence, peptide release. This is another data set of the same source.

T1 sequence (P40150 whole entry): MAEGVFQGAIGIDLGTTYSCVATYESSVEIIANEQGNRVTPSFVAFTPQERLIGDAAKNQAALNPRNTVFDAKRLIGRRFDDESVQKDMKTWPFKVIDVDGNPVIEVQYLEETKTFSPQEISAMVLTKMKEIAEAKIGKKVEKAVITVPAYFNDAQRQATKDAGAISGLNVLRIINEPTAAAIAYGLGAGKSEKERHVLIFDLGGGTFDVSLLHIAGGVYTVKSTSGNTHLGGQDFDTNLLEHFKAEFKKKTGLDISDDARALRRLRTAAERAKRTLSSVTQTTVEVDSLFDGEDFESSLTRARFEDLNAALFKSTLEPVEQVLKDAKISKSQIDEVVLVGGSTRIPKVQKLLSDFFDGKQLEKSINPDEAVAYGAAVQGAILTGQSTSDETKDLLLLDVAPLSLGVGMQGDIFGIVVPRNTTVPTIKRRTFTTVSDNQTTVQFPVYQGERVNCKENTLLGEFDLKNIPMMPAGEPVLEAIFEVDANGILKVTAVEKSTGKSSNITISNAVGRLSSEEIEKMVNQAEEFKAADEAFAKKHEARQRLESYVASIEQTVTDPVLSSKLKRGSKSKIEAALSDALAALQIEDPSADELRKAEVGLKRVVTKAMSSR

B1: IAANS labeled peptide substrate σ32-Q132-Q144-C (peptide)
peptide: QRKLFFNLRKTKQC
modifications: not fully specified (residue 14); also: labeled with IAANS, site not given here
Turning to B1, the “half-life of the complex” value is 3.9 ± 0.2 h in experiment [1] and 7.7 ± 6.7 min in experiment [2].
